Results from US20230051304A1 (Regeneron, published 2023).
Read-outs that look alike come from different tables or passages of the source.

Columns and labels:
[1] = target: T1, murine IL12 receptor complex (IL12Rβ1 and IL12Rβ2) (mouse, UniProt Q60837 20-738; P97378 24-874); experiment: cell-based or functional assay
[2] = target: T1, murine IL12 receptor complex (IL12Rβ1 …); experiment: cell-based or functional assay; remark: listed apart in the source

T1 sequence (Q60837 20-738, chain 1 of 2): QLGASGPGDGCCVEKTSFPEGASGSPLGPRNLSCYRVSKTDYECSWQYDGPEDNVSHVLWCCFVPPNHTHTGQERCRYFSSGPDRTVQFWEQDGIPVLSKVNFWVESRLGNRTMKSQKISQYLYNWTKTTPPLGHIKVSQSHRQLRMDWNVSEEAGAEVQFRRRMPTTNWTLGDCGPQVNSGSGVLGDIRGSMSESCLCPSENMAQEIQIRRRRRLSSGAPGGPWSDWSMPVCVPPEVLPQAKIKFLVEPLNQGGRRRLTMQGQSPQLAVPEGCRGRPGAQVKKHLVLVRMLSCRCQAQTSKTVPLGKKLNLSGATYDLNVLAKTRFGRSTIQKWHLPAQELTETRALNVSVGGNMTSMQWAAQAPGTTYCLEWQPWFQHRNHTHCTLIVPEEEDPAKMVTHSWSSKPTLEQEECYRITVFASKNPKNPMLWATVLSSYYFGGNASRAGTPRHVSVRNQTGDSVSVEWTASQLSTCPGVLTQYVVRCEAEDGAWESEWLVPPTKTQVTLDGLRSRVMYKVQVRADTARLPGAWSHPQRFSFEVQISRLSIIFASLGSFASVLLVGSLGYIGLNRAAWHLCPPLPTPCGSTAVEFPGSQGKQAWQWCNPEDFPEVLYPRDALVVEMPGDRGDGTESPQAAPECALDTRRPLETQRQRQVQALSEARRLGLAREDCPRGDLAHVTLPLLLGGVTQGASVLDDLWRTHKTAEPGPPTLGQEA
T1 sequence (P97378 24-874, chain 2 of 2): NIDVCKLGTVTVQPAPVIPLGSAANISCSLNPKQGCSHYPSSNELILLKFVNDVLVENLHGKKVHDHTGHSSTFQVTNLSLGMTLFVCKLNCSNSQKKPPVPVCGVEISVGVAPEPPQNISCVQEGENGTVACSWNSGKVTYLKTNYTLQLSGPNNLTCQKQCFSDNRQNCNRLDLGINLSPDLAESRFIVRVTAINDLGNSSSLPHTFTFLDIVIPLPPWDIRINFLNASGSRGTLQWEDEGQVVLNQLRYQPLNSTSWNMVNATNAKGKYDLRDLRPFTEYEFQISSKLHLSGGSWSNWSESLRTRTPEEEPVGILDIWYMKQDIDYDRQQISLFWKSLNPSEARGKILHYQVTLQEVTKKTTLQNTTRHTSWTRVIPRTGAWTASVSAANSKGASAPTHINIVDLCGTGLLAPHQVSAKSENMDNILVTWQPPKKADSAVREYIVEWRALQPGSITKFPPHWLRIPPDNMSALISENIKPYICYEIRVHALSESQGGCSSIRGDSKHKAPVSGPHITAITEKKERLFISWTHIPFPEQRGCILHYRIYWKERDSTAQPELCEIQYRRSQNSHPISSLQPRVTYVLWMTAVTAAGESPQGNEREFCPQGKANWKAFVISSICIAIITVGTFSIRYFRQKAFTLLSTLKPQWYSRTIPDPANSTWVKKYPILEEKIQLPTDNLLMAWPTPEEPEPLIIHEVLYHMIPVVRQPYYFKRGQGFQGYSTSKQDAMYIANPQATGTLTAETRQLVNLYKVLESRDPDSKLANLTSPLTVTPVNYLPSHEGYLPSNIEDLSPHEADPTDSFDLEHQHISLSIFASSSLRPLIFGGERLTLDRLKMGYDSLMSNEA

EC50 (M); STAT3-Luc reporter, CTLL2/STAT3-Luc cells [1] | Fold induction at 6.25 nM; STAT3-Luc reporter, CTLL2/STAT3-Luc cells [1] | Max fold induction; STAT3-Luc reporter, CTLL2/STAT3-Luc cells [1] | Max fold induction; STAT3-Luc reporter, CTLL2/STAT3-Luc cells [2] | EC50 (M); STAT3-Luc reporter, CTLL2/STAT3-Luc cells [2] | Binder
8.11e-11 M | 8.93 fold | 9.62 fold | – | – | Monovalent: IL12*(p35*xp40*)-Fc (Fc fusion) chain 1: RVIPVSGPARCLSQSRNLLKTTDDMVKTAREKLKHYSCTAEDIDHEDITRDQTSTLKTCLPLELHKNESSLATRETSSTTRGSCLPPQKTSLMMTLCLGSIYEDLKMYQTEFQAINAALQNHNHQQIILDKGMLVAIDELMQSLNHNGETLRQKPPVGEADPYRVKMKLCILLHAFSTRVVTINRVMGYLSSAGGGGSGGGGSGGGGSESKYGPPCPPCPAPPVAGPSVFLFPPKPKDTLMISRTPEVTCVVVDVSQEDPEVQFNWYVDGVEVHNAKTKPREEQFNSTYRVVSVLTVLHQDWLNGKEYKCKVSNKGLPSSIEKTISKAKGQPREPQVYTLPPSQEEMTKNQVSLWCLVKGFYPSDIAVEWESNGQPENNYKTTPPVLDSDGSFFLYSRLTVDKSRWQEGNVFSCSVMHEALHNHYTQKSLSLSLGK chain 2: MWELEKDVYVVEVDWTPDAPGETVNLTCDTPEEDDITWTSDQRHGVIGSGKTLTITVKEFLDAGQYTCHKGGETLSHSHLLLHKKENGIWSTEILKNFKNKTFLKCEAPNYSGRFTCSWLVQRNMDLKFNIKSSSSSPDSRAVTCGMASLSAEKVTLDQRDYEKYSVSCQEDVTSPTAEETLPIELALEARQQNKYENYSTSFFIRDIIKPDPPKNLQMKPLKNSQVEVSWEYPDSWSTPHSYFSLKFFVRIQRKKEKMKETEEGCNQKGAFLVEKTSTEVQCKGGNVCVQAQDRYYNSSCSKWACVPCRVRSGGGGSGGGGSGGGGSESKYGPPCPPCPAPPVAGPSVFLFPPKPKDTLMISRTPEVTCVVVDVSQEDPEVQFNWYVDGVEVHNAKTKPREEQFNSTYRVVSVLTVLHQDWLNGKEYKCKVSNKGLPSSIEKTISKAKGQPREPQVYTLPPSQEEMTKNQVSLSCAVKGFYPSDIAVEWESNGQPENNYKTTPPVLDSDGSFFLVSRLTVDKSRWQEGNVFSCSVMHEALHNRFTQKSLSLSPGK
– | – | – | 9.67 fold | 3.53e-10 M | Fc-IL12(mutein 17) (Fc fusion) ESKYGPPCPPCPAPPVAGPSVFLFPPKPKDTLMISRTPEVTCVVVDVSQEDPEVQFNWYVDGVEVHNAKTKPREEQFNSTYRVVSVLTVLHQDWLNGKEYKCKVSNKGLPSSIEKTISKAKGQPREPQVYTLPPSQEEMTKNQVSLTCLVKGFYPSDIAVEWESNGQPENNYKTTPPVLDSDGSFFLYSRLTVDKSRWQEGNVFSCSVMHEALHNHYTQKSLSLSLGKGGGGSGGGGSGGGGSMWELEKDVYVVEVDWTPDAPGETVNLTCDTPEEDDITWTSDQRHGVIGSGKTLTITVKEFLDAGQYTCHKGGETLSHSHLLLHKKENGIWSTAILKNFKNKTFLKCEAPNYSGRFTCSWLVQRNMDLKFNIKSSSSSPDSRAVTCGMASLSAEKVTLDQRDYEKYSVSCQEDVTCPTAEETLPIELALEARQQNAYENYSTSFFIRDIIKPDPPKNLQMKPLKNSQVEVSWEYPDSWSTPHSYFSLKFFVRIQRKKEKMKETEEGCNQKGAFLVEKTSTEVQCKGGNVCVQAQDRYYNSSCSKWACVPCRVRSGGGGSGGGGSGGGGSRVIPVSGPARCLSQSRNLLKTTDDMVKTAREKLKHYSCTAEDIDHEDITRDQTSTLKTCLPLELHKNESCLATRETSSTTRGSCLPPQKTSLMMTLCLGSIYEDLKMYQTEFQAINAALQNHNHQQIILDKGMLVAIDELMQSLNHNGETLRQKPPVGEADPYRVKMKLCILLHAFSTRVVTINRVMGYLSSA

Second part, the binder before the results:

Binder | EC50 (M); STAT3-Luc reporter, CTLL2/STAT3-Luc cells [1] | Fold induction at 6.25 nM; STAT3-Luc reporter, CTLL2/STAT3-Luc cells [1] | Max fold induction; STAT3-Luc reporter, CTLL2/STAT3-Luc cells [1] | Max fold induction; STAT3-Luc reporter, CTLL2/STAT3-Luc cells [2] | EC50 (M); STAT3-Luc reporter, CTLL2/STAT3-Luc cells [2]
Fc-IL12(mutein 15) (Fc fusion) ESKYGPPCPPCPAPPVAGPSVFLFPPKPKDTLMISRTPEVTCVVVDVSQEDPEVQFNWYVDGVEVHNAKTKPREEQFNSTYRVVSVLTVLHQDWLNGKEYKCKVSNKGLPSSIEKTISKAKGQPREPQVYTLPPSQEEMTKNQVSLTCLVKGFYPSDIAVEWESNGQPENNYKTTPPVLDSDGSFFLYSRLTVDKSRWQEGNVFSCSVMHEALHNHYTQKSLSLSLGKGGGGSGGGGSGGGGSMWELEKDVYVVEVDWTPDAPGETVNLTCDTPEEDDITWTSDQRHGVIGSGKTLTITVKAALDAGQYTCHKGGETLSHSHLLLHAKENGIWSTEILKNFKNKTFLKCEAPNYSGRFTCSWLVQRNMDLKFNIKSSSSSPDSRAVTCGMASLSAEKVTLDQRDYEKYSVSCQEDVTCPTAEETLPIELALEARQQNKYENYSTSFFIRDIIKPDPPKNLQMKPLKNSQVEVSWEYPDSWSTPHSYFSLKFFVRIQRKKEKMKETEEGCNQKGAFLVEKTSTEVQCKGGNVCVQAQDRYYNSSCSKWACVPCRVRSGGGGSGGGGSGGGGSRVIPVSGPARCLSQSRNLLKTTDDMVKTAREKLKHYSCTAEDIDHEDITRDQTSTLKTCLPLELHKNESCLATRETSSTTRGSCLPPQKTSLMMTLCLGSIYEDLKMYQTEFQAINAALQNHNHQQIILDKGMLVAIDELMQSLNHNGETLRQKPPVGEADPYRVKMKLCILLHAFSTRVVTINRVMGYLSSA | – | – | – | 1.18 fold | –
Fc-IL12(mutein 14) (Fc fusion) ESKYGPPCPPCPAPPVAGPSVFLFPPKPKDTLMISRTPEVTCVVVDVSQEDPEVQFNWYVDGVEVHNAKTKPREEQFNSTYRVVSVLTVLHQDWLNGKEYKCKVSNKGLPSSIEKTISKAKGQPREPQVYTLPPSQEEMTKNQVSLTCLVKGFYPSDIAVEWESNGQPENNYKTTPPVLDSDGSFFLYSRLTVDKSRWQEGNVFSCSVMHEALHNHYTQKSLSLSLGKGGGGSGGGGSGGGGSMWELEKDVYVVEVDWTPDAPGETVNLTCDTPEEDDITWTSDQRHGVIGSGKTLTITVKAALDAGQYTCHKGGETLSHSHLLLHKKENGIWSTEILKNFKNKTFLKCEAPNYSGRFTCSWLVQRNMDLKFNIKSSSSSPDSRAVTCGMASLSAEKVTLDQRDYEKYSVSCQEDVTCPTAEETLPIELALEARQQNKYENYSTSFFIRDIIKPDPPKNLQMKPLKNSQVEVSWEYPDSWSTPHSYFSLKFFVRIQRKKEKMKETEEGCNQKGAFLVEKTSTEVQCKGGNVCVQAQDRYYNSSCSKWACVPCRVRSGGGGSGGGGSGGGGSRVIPVSGPARCLSQSRNLLKTTDDMVKTAREKLKHYSCTAEDIDHEDITRDQTSTLKTCLPLELHKNESCLATRETSSTTRGSCLPPQKTSLMMTLCLGSIYEDLKMYQTEFQAINAALQNHNHQQIILDKGMLVAIDELMQSLNHNGETLRQKPPVGEADPYRVKMKLCILLHAFSTRVVTINRVMGYLSSA | – | – | – | 7.31 fold | 3.79e-09 M
Fc-IL12(mutein 16) (Fc fusion) ESKYGPPCPPCPAPPVAGPSVFLFPPKPKDTLMISRTPEVTCVVVDVSQEDPEVQFNWYVDGVEVHNAKTKPREEQFNSTYRVVSVLTVLHQDWLNGKEYKCKVSNKGLPSSIEKTISKAKGQPREPQVYTLPPSQEEMTKNQVSLTCLVKGFYPSDIAVEWESNGQPENNYKTTPPVLDSDGSFFLYSRLTVDKSRWQEGNVFSCSVMHEALHNHYTQKSLSLSLGKGGGGSGGGGSGGGGSMWELEKDVYVVEVDATPDAPGETVNLTCDTPEEDDITWTSDQRHGVIGSGKTLTITVKEALDAGQYTCHKGGETLSHSHLLLHKKENGIWSTEILKNFKNKTFLKCEAPNYSGRFTCSWLVQRNMDLKFNIKSSSSSPDSRAVTCGMASLSAEKVTLDQRDYEKYSVSCQEDVTCPTAEETLPIELALEARQQNKYENYSTSFFIRDIIKPDPPKNLQMKPLKNSQVEVSWEYPDSWSTPHSYFSLKFFVRIQRKKEKMKETEEGCNQKGAFLVEKTSTEVQCKGGNVCVQAQDRYYNSSCSKWACVPCRVRSGGGGSGGGGSGGGGSRVIPVSGPARCLSQSRNLLKTTDDMVKTAREKLKHYSCTAEDIDHEDITRDQTSTLKTCLPLELHKNESCLATRETSSTTRGSCLPPQKTSLMMTLCLGSIYEDLKMYQTEFQAINAALQNHNHQQIILDKGMLVAIDELMQSLNHNGETLRQKPPVGEADPYRVKMKLCILLHAFSTRVVTINRVMGYLSSA | – | – | – | 2.48 fold | 1.67e-08 M
